One assay addresses T1, rat α-CGRP (Rattus norvegicus, UniProt P01256).
T1 construct: rat α (1-37); purchased GenScript Corporation or Global Peptide Services
T1 sequence (P01256 83-119 limits assumed): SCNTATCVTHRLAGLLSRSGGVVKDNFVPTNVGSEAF
The assay is described as follows: Biacore SPR affinity of Fab fragments to N-biotinylated rat α-CGRP on SA chip. To be noted: 37° C., screening mode except underlined values. It counts as binding. In short, it runs like this: (§1)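 HBS-EP pH 7.4 running buffer at 25° C. or 37° C.; N-biotinylated CGRP captured on streptavidin SA chip (<50 RU for kinetics), Fab titrated over surface with regeneration by 25 mM NaOH/25% ethanol. Titrations globally fit to 1:1 Langmuir model; KD=koff/kon, with 2-hour dissociation for very slow off-rates.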

Another assay addresses T2, human α-CGRP (Homo sapiens, UniProt P06881).
T2 construct: 1-37 (WT); purchased GenScript Corporation or Global Peptide Services
T2 sequence (P06881 83-119 limits assumed): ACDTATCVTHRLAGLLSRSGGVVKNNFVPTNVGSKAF
The experiment in a line: Biacore SPR affinity of Fab fragments to N-biotinylated human α-CGRP on SA chip. It counts as binding. To be noted: 37° C., screening mode except underlined values. In short, it runs like this: as §1

This note sets out measurements from patent US20190071490A1, “Preventing Post-Ictal Headaches” (Beth Israel Deaconess Medical Center, Inc., priority 2017, published 2019).

B1: M21: G1 variant; L1 R28W; HC-FW3 L99S (antibody, V domains shown)
VH: EVQLVESGGGLVQPGGSLRLSCAASGFTFSNYWISWVRQAPGKGLEWVAEIRSESDASATHYAEAVKGRFTISRDNAKNSLYLQMNSLRAEDTAVYYCSAYFDYGLAIQNYWGQGTLVTVSS
VL: EIVLTQSPATLSLSPGERATLSCKASKWVTTYVSWYQQKPGQAPRLLIYGASNRYLGIPARFSGSGSGTDFTLTISSLEPEDFAVYYCSQSYNYPYTFGQGTKLEIK
As for B1, the “α-rat koff” value with rat α-CGRP turned out to be 0.000695 s⁻¹. The “α-human koff” value with human α-CGRP worked out at 0.000142 s⁻¹.

B2: M24: G1 variant; L1 R28L; HC-FW3 L99T A100V (antibody, V domains shown)
VH: EVQLVESGGGLVQPGGSLRLSCAASGFTFSNYWISWVRQAPGKGLEWVAEIRSESDASATHYAEAVKGRFTISRDNAKNSLYLQMNSLRAEDTAVYYCTVYFDYGLAIQNYWGQGTLVTVSS
VL: EIVLTQSPATLSLSPGERATLSCKASKLVTTYVSWYQQKPGQAPRLLIYGASNRYLGIPARFSGSGSGTDFTLTISSLEPEDFAVYYCSQSYNYPYTFGQGTKLEIK
As to B2, in the assay with rat α-CGRP, the “α-rat koff” value was found to be 0.00104 s⁻¹. For the same molecule, in the assay with human α-CGRP, the “α-human koff” value turned out to be 0.000148 s⁻¹.

B3: M31: G1 variant; L1 R28N T30G; H2 E54K A57G; HC-FW3 L99T A100V (antibody, V domains shown)
VH: EVQLVESGGGLVQPGGSLRLSCAASGFTFSNYWISWVRQAPGKGLEWVAEIRSKSDGSATHYAEAVKGRFTISRDNAKNSLYLQMNSLRAEDTAVYYCTVYFDYGLAIQNYWGQGTLVTVSS
VL: EIVLTQSPATLSLSPGERATLSCKASKNVGTYVSWYQQKPGQAPRLLIYGASNRYLGIPARFSGSGSGTDFTLTISSLEPEDFAVYYCSQSYNYPYTFGQGTKLEIK
As for B3, the “α-rat koff” value with rat α-CGRP was 0.00361 s⁻¹. Moreover, the “α-human koff” value with human α-CGRP is 0.000347 s⁻¹.

B4: M27: G1 variant; L1 R28N T30A; HC-FW3 L99T A100V (antibody, V domains shown)
VH: EVQLVESGGGLVQPGGSLRLSCAASGFTFSNYWISWVRQAPGKGLEWVAEIRSESDASATHYAEAVKGRFTISRDNAKNSLYLQMNSLRAEDTAVYYCTVYFDYGLAIQNYWGQGTLVTVSS
VL: EIVLTQSPATLSLSPGERATLSCKASKNVATYVSWYQQKPGQAPRLLIYGASNRYLGIPARFSGSGSGTDFTLTISSLEPEDFAVYYCSQSYNYPYTFGQGTKLEIK
With B4, in the assay with rat α-CGRP, the “α-rat koff” value came out at 0.00341 s⁻¹. The “α-human koff” value with human α-CGRP was 0.000357 s⁻¹.

B5: M28: G1 variant; L1 R28N T30D; H2 E54R A57N; HC-FW3 L99T A100V (antibody, V domains shown)
VH: EVQLVESGGGLVQPGGSLRLSCAASGFTFSNYWISWVRQAPGKGLEWVAEIRSRSDNSATHYAEAVKGRFTISRDNAKNSLYLQMNSLRAEDTAVYYCTVYFDYGLAIQNYWGQGTLVTVSS
VL: EIVLTQSPATLSLSPGERATLSCKASKNVDTYVSWYQQKPGQAPRLLIYGASNRYLGIPARFSGSGSGTDFTLTISSLEPEDFAVYYCSQSYNYPYTFGQGTKLEIK
Turning to B5, the “α-rat koff” value with rat α-CGRP amounted to 0.00125 s⁻¹. In addition, the “α-human koff” value in the assay with human α-CGRP came to 9.96e-05 s⁻¹.

B6: M29: G1 variant; L1 R28N T30G; HC-FW3 L99T A100V (antibody, V domains shown)
VH: EVQLVESGGGLVQPGGSLRLSCAASGFTFSNYWISWVRQAPGKGLEWVAEIRSESDASATHYAEAVKGRFTISRDNAKNSLYLQMNSLRAEDTAVYYCTVYFDYGLAIQNYWGQGTLVTVSS
VL: EIVLTQSPATLSLSPGERATLSCKASKNVGTYVSWYQQKPGQAPRLLIYGASNRYLGIPARFSGSGSGTDFTLTISSLEPEDFAVYYCSQSYNYPYTFGQGTKLEIK
Consider B6, for which, in the assay with rat α-CGRP, the “α-rat koff” value amounted to 0.00359 s⁻¹. Also, the “α-human koff” value with human α-CGRP was determined as 0.00038 s⁻¹.

B7: M23: G1 variant; L1 R28G; HC-FW3 L99T A100V (antibody, V domains shown)
VH: EVQLVESGGGLVQPGGSLRLSCAASGFTFSNYWISWVRQAPGKGLEWVAEIRSESDASATHYAEAVKGRFTISRDNAKNSLYLQMNSLRAEDTAVYYCTVYFDYGLAIQNYWGQGTLVTVSS
VL: EIVLTQSPATLSLSPGERATLSCKASKGVTTYVSWYQQKPGQAPRLLIYGASNRYLGIPARFSGSGSGTDFTLTISSLEPEDFAVYYCSQSYNYPYTFGQGTKLEIK
Regarding B7, in the assay with rat α-CGRP, the “α-rat koff” value was 0.000799 s⁻¹. Besides, the “α-human koff” value with human α-CGRP was 0.00013 s⁻¹.

B8: M26: G1 variant; L1 R28N; H2 A57G; HC-FW3 L99T A100V (antibody, V domains shown)
VH: EVQLVESGGGLVQPGGSLRLSCAASGFTFSNYWISWVRQAPGKGLEWVAEIRSESDGSATHYAEAVKGRFTISRDNAKNSLYLQMNSLRAEDTAVYYCTVYFDYGLAIQNYWGQGTLVTVSS
VL: EIVLTQSPATLSLSPGERATLSCKASKNVTTYVSWYQQKPGQAPRLLIYGASNRYLGIPARFSGSGSGTDFTLTISSLEPEDFAVYYCSQSYNYPYTFGQGTKLEIK
B8: the “α-rat koff” value in the assay with rat α-CGRP amounted to 0.000924 s⁻¹. In the assay with human α-CGRP, the “α-human koff” value was 0.000148 s⁻¹.

B9: M32: G1 variant; L1 R28N T30G; H2 E54K A57H; HC-FW3 L99T A100V (antibody, V domains shown)
VH: EVQLVESGGGLVQPGGSLRLSCAASGFTFSNYWISWVRQAPGKGLEWVAEIRSKSDHSATHYAEAVKGRFTISRDNAKNSLYLQMNSLRAEDTAVYYCTVYFDYGLAIQNYWGQGTLVTVSS
VL: EIVLTQSPATLSLSPGERATLSCKASKNVGTYVSWYQQKPGQAPRLLIYGASNRYLGIPARFSGSGSGTDFTLTISSLEPEDFAVYYCSQSYNYPYTFGQGTKLEIK
For B9, the “α-rat koff” value with rat α-CGRP is 0.00296 s⁻¹. Besides, the “α-human koff” value with human α-CGRP came out at 0.000271 s⁻¹.

B10: M30: G1 variant; L1 R28N T30G; H2 E54K A57E; HC-FW3 L99T A100V (antibody, V domains shown)
VH: EVQLVESGGGLVQPGGSLRLSCAASGFTFSNYWISWVRQAPGKGLEWVAEIRSKSDESATHYAEAVKGRFTISRDNAKNSLYLQMNSLRAEDTAVYYCTVYFDYGLAIQNYWGQGTLVTVSS
VL: EIVLTQSPATLSLSPGERATLSCKASKNVGTYVSWYQQKPGQAPRLLIYGASNRYLGIPARFSGSGSGTDFTLTISSLEPEDFAVYYCSQSYNYPYTFGQGTKLEIK
Consider B10, for which, in the assay with rat α-CGRP, the “α-rat koff” value is 0.00638 s⁻¹. The “α-human koff” value with human α-CGRP is 0.00059 s⁻¹.

B11: M22: G1 variant; L1 R28W; HC-FW3 L99T (antibody, V domains shown)
VH: EVQLVESGGGLVQPGGSLRLSCAASGFTFSNYWISWVRQAPGKGLEWVAEIRSESDASATHYAEAVKGRFTISRDNAKNSLYLQMNSLRAEDTAVYYCTAYFDYGLAIQNYWGQGTLVTVSS
VL: EIVLTQSPATLSLSPGERATLSCKASKWVTTYVSWYQQKPGQAPRLLIYGASNRYLGIPARFSGSGSGTDFTLTISSLEPEDFAVYYCSQSYNYPYTFGQGTKLEIK
Regarding B11, in the assay with rat α-CGRP, the “α-rat koff” value was determined as 0.0011 s⁻¹. In the assay with human α-CGRP, the “α-human koff” value was determined as 0.000116 s⁻¹.
